Source: patent US20250143272A1

Tests used:
[1] = target: mouse NKP46 (NCR1) protein, NP_034876.2 (mouse) (UniProt Q8C567); experiment: flow cytometry, spleen NK cells of NKP46 humanized heterozygous mouse (cells carry mouse and humanized NKP46)
[2] = target: mouse NKP46 (NCR1) protein, NP_034876.2 (mouse) (UniProt Q8C567); experiment: flow cytometry, peripheral blood NK cells of C57BL/6 wild-type mouse
[3] = target: mouse NKP46 (NCR1) protein, NP_034876.2 (mouse) (UniProt Q8C567); experiment: flow cytometry, spleen NK cells of C57BL/6 wild-type mouse
[4] = target: mouse NKP46 (NCR1) protein, NP_034876.2 (mouse) (UniProt Q8C567); experiment: flow cytometry, peripheral blood NK cells of C57BL/6 wild-type mouse; remark: listed apart in the source
[5] = target: mouse NKP46 (NCR1) protein, NP_034876.2 (mouse) (UniProt Q8C567); experiment: flow cytometry, spleen NK cells of C57BL/6 wild-type mouse; remark: listed apart in the source
[6] = target: mouse NKP46 (NCR1) protein, NP_034876.2 (mouse) (UniProt Q8C567); experiment: flow cytometry, peripheral blood NK cells of NKP46 humanized heterozygous mouse (cells carry mouse and humanized NKP46)
[7] = target: humanized NKP46 protein (engineered mouse NKP46 after humanization) (human/mouse chimera (human NKP46 amino acids 2-253 replacing mouse 2-253; rest mouse)); experiment: flow cytometry, spleen NK cells of NKP46 humanized homozygous mouse
[8] = target: humanized NKP46 protein (engineered mouse NKP46 after humanization) (human/mouse chimera (human NKP46 amino acids 2-253 replacing mouse 2-253; rest mouse)); experiment: flow cytometry, peripheral blood NK cells of NKP46 humanized homozygous mouse
[9] = target: humanized NKP46 protein (engineered mouse NKP46 after humanization) (human/mouse chimera (human NKP46 amino acids 2-253 replacing mouse 2-253; rest mouse)); experiment: flow cytometry, spleen NK cells of NKP46 humanized heterozygous mouse
[10] = target: humanized NKP46 protein (engineered mouse NKP46 after humanization) (human/mouse chimera (human NKP46 amino acids 2-253 replacing mouse 2-253; rest mouse)); experiment: flow cytometry, peripheral blood NK cells of NKP46 humanized heterozygous mouse

Chain of humanized NKP46 protein (engineered mouse NKP46 after humanization) (human/mouse chimera (human NKP46 amino acids 2-253 replacing mouse 2-253; rest mouse)) (chain, as listed by the source mutant limits assumed): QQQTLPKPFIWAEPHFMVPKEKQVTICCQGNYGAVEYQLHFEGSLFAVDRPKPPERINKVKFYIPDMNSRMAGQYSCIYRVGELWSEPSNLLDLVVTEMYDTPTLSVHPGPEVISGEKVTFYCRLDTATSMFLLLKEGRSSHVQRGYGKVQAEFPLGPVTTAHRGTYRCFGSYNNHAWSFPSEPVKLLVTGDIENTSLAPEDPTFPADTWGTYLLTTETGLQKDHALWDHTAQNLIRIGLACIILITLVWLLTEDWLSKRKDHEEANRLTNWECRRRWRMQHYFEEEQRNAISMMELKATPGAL
Chain of UniProt Q8C567 (Q8C567 17-325 R131Q): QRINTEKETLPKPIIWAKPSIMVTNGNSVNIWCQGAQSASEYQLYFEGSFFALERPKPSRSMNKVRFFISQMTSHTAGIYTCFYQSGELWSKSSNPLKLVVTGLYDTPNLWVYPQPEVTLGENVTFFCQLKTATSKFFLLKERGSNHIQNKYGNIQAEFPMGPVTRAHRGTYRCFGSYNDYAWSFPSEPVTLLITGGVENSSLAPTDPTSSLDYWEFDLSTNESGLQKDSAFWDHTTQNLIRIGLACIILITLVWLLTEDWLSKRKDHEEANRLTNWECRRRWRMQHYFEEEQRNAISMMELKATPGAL

| Substance | % mCD45+ mNK1.1+ mNKP46+ cells [1] [%] | % mCD45+ mNK1.1+ mNKP46+ cells [2] [%] | % mCD45+ mNK1.1+ mNKP46+ cells [3] [%] | % mCD45+ mNK1.1+ mNKP46+ cells [4] [%] | % mCD45+ mNK1.1+ mNKP46+ cells [5] [%] | % mCD45+ mNK1.1+ mNKP46+ cells [6] [%] | % mCD45+ mNK1.1+ mNKP46+ cells [7] [%] | % mCD45+ mNK1.1+ mNKP46+ cells [8] [%] | % mCD45+ mNK1.1+ hNKP46+ cells [2] [%] | % mCD45+ mNK1.1+ hNKP46+ cells [3] [%] | % mCD45+ mNK1.1+ hNKP46+ cells [9] [%] | % mCD45+ mNK1.1+ hNKP46+ cells [4] [%] | % mCD45+ mNK1.1+ hNKP46+ cells [5] [%] | % mCD45+ mNK1.1+ hNKP46+ cells [7] [%] | % mCD45+ mNK1.1+ hNKP46+ cells [8] [%] | % mCD45+ mNK1.1+ hNKP46+ cells [10] [%] |
| --- | --- | --- | --- | --- | --- | --- | --- | --- | --- | --- | --- | --- | --- | --- | --- | --- |
| APC anti-mouse CD335 (NKP46) Antibody (BioLegend, Catalog number: 137607) | 3.44 | 3.96 | 2.25 | 2.81 | 4.21 | 4.33 | 0.035 | 0.009 | – | – | – | – | – | – | – | – |
| PE anti-human CD335 (NKP46) Antibody (BioLegend, Catalog number: 331907) | – | – | – | – | – | – | – | – | 0.056 | 0.11 | 4.08 | 0.034 | 0.14 | 2.79 | 3.55 | 4.95 |
